In patent US20200069736A1 (WHITEHEAD INSTITUTE FOR BIOMEDICAL RESEARCH, published 2020):

Target: T1, murine Class II MHC molecules on wild-type C57BL/6 mouse B cells (mouse, UniProt P14434 24-256; P14483 28-265)
T1 construct: whole, on cells; Endogenous MHC class II on B cells immobilised on streptavidin beads through biotinylated anti-CD19; also called mouse MHC class II
T1 sequence (MHC II alpha, looked up): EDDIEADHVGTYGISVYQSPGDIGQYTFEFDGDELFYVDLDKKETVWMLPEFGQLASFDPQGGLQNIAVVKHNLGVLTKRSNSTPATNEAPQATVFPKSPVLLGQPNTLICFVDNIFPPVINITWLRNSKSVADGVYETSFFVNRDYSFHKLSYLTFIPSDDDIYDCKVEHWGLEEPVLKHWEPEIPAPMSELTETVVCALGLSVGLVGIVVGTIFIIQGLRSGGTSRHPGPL
T1 sequence (MHC II beta, looked up): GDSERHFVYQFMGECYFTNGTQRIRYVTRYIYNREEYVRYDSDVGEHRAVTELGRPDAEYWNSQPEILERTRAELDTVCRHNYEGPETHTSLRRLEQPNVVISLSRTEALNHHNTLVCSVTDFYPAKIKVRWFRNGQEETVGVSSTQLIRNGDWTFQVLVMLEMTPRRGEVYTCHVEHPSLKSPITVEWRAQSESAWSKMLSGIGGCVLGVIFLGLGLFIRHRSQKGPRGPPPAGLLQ
Assay: B cell-red blood cell binding assay: B cells on magnetic beads, bound red cells detected by anti-hemoglobin immunoblot
Description: FIG. 25 is a diagram showing conjugation of single domain antibody to engineered red blood cells and cell type-specific targeting. (A) Mouse mature red blood engineered to contain 3G-myc-GPA on the cell surface were incubated with. Sortase with or without VHH7-LPETG (SEQ ID NO: 44): a single domain antibody with binding specificity for mouse MHC class II molecules and sortase motif complementary to 3G. […] (B) Either wild type mouse B cells (expressing MHC class II) or B cells derived from MHC class II knock-out mice were immobilized on magnetic streptavidin beads via biotinylated α-CD19 antibody, incubated with 3G-myc-GPA red blood cells or red cells that contained sortase-labeled VHH7-LPETG (SEQ ID NO: 44)-myc GPA on their surface, and washed. Immobilization of B cells in all experimental set-ups was tested by presence of CD19 in α-CD19 immunoblot and binding between B cells and red blood cells was evaluated by the presence of hemoglobin in the α-hemoglobin immunoblot. (C) Schematic for experiment shown in (B); LPETG: (SEQ ID NO: 44).
A B cell—red blood cell binding assay was performed as follows. B cells were isolated from either wild-type C57BL/6 mice or mice knock-out for MI-IC class II using Dynabeads Mouse CD43 (Untouched B cells) (Life Technologies) according to manufacturer's recommendations. […]

B1: 3G-myc-hGPA on the surface of mouse red blood cells, not labeled with VHH7 (other, human, not shown: small tags and cut ends)
chain (part 1 of 2): GGG
chain (part 2 of 2): LSTTEVAMHTSTSSSVTKSYISSQTNDTHKRDTYAATPRAHEVSEISVRTVYPPEEETGERVQLAHHFSEPEITLIIFGVMAGVIGTILLISYGIRRLIKKSPSDVKPLPSPDTDVPLSSVEIENPETSDQ
notes: mature; also called 3G-myc-GPA red blood cells; unmodified red cells
binding result: no binding
